Assay results: paper PMC11782559, “Innovative CDR grafting and computational methods for PD-1 specific nanobody design” (Frontiers in Bioinformatics, 2024)

Target: T1, human PD-1 Fc recombinant protein (Homo sapiens, UniProt Q15116)
T1 construct: Programmed Cell Death Protein-1 (PD-1), human, bought as an Fc fusion; Ran at about 63 kDa in the blot; Surmise: the commercial product holds the extracellular domain of PD-1 fused to a human IgG1 Fc; The ELISA methods say only 'recombinant human PD-1'; also called recombinant human PD-1; Programmed Cell Death Protein-1; source: bought: Peprotech, Catalog # 310-40-1 MG
T1 sequence (Q15116 25-170): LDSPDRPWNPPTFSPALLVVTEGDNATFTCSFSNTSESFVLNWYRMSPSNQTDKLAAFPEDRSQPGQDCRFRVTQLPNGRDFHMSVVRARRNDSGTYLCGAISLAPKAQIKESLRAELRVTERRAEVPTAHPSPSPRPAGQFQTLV
Experiment: far-Western, overlay or dot blot; Western blot: PD-1 Fc (200 ng) separated on 12% SDS-PAGE (denatured), transferred to nitrocellulose, blocked with 5% milk in TBST, probed overnight at 4°C with 10 μg/mL purified nanobody, detected with anti-His tag HRP antibody
Conditions: both partners purified

binding result: binds
B1: designed PD-1-specific nanobody (Cemiplimab CDRs grafted onto Caplacizumab framework regions) (VHH)
VHH: EVQLVESGGGLVQPGGSLRLSCAASGFTFSNFGMGWFRQAPGKGRELVAAISGGGRDTYYPDSVEGRFTISRDNAKRMVYLQMNSLRAEDTAVYYCVKWGNIYFDYWGQGTQVTVSS
notes: CDRs of the Cemiplimab heavy chain grafted onto the framework regions of Caplacizumab; 117 residues, 12.5 kDa without tag; Gene inserted into pET-28a (+) at NdeI and XhoI; with His tag about 13.5 kDa; Surmise: this cloning usually gives an N-terminal His6 tag with a thrombin site from the vector; also called NB; designed nanobody; source: E. coli BL21 (DE3), pET-28a (+), purified (Ni-NTA, …)
